Test results as given in the supplement of paper PMC10724198.
± gives the standard deviation of the averaged measurements.

Test system: Saccharomyces cerevisiae
Assay: protein stability index of tFT-peptide fusion (C-terminal peptide) (PSI (0-1 scale)); higher = more stable (slower turnover)
Conditions: genetic background: wild type; temperature: 30 C
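Also: PSI is a weighted mean of sequencing reads over stability bins, variants kept only with over 10 reads, mCherry proximal and sfGFP distal, peptide attached via GGGS linker.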

QPPPPRLPPRPP
protein stability index: 0.622 ± 0.0027

QPRPSISGLSPT
protein stability index: 0.642 ± 0.02

QQKKCNTIKKNE
protein stability index: 0.637 ± 0.0024

QQLWQTHEHQAR
protein stability index: 0.674 ± 0.035

QQQSTKHSEERV
protein stability index: 0.691 ± 0.014

QRGDDFHDTSPA
protein stability index: 0.708 ± 0.0082

QRGEGTSQGILT
protein stability index: 0.807 ± 0.13

QSAFLFGFMSFW
protein stability index: 0.62 ± 0.025

QSFGSYYLTIAL
protein stability index: 0.67 ± 0.036

QSHNDIRDGPPR
protein stability index: 0.679 ± 0.021

QSIESKKIKQKE
protein stability index: 0.7109 ± 0.0048

QSNPAERASSRL
protein stability index: 0.692 ± 0.022

QSQMEKGTIVWT
protein stability index: 0.705 ± 0.011

QSSWVGRGVRGG
protein stability index: 0.647 ± 0.014

QTLKKRRNRSRG
protein stability index: 0.684 ± 0.041

QTLQHLQTPSIS
protein stability index: 0.761 ± 0.092

QTYEGSKGHLRD
protein stability index: 0.6625 ± 0.0044

QTYQQSVKNRDD
protein stability index: 0.666 ± 0.061

QVDVLVCKLEVP
protein stability index: 0.672 ± 0.11

QVFKHVKHIEFD
protein stability index: 0.725 ± 0.062

QVHPKRPLNQSL
protein stability index: 0.735 ± 0.054

QVSLLVKKSKLR
protein stability index: 0.679 ± 0.049

QVYGEWASAGWG
protein stability index: 0.718 ± 0.04

QWLGRDLKSREL
protein stability index: 0.691 ± 0.064

RACKKGTKRIRI
protein stability index: 0.613 ± 0.06

RAGHREIARQKG
protein stability index: 0.6307 ± 0.0013

RAGPPPPPSITL
protein stability index: 0.83 ± 0.085

RAGRVRAPGRWP
protein stability index: 0.728 ± 0.017

RAIRWFGGRLVG
protein stability index: 0.7228 ± 0.0049

RAKGTGRRLGVA
protein stability index: 0.676 ± 0.013

RALVIKREALQI
protein stability index: 0.59 ± 0.03

RASGNHVNQVDC
protein stability index: 0.719 ± 0.036

RASGSFPSLVFS
protein stability index: 0.734 ± 0.12

RASWVRTLMSCQ
protein stability index: 0.58161 ± 0.00022

RATERIVNIKGK
protein stability index: 0.63277 ± 0.00036

RATLPPSAASLP
protein stability index: 0.677 ± 0.1

RATSCAAPLLAR
protein stability index: 0.6009 ± 0.0047

RATTDGGRGGRR
protein stability index: 0.696 ± 0.037

RAVAGGPMPGSG
protein stability index: 0.732 ± 0.044

RCAIMGRGGIVT
protein stability index: 0.686 ± 0.018

RCGVGGAVSFWW
protein stability index: 0.72 ± 0.05

RCLGVCRAESLP
protein stability index: 0.682 ± 0.034

RCQYRRTMSITI
protein stability index: 0.635 ± 0.034

RCRNVGAVATPR
protein stability index: 0.643 ± 0.1

RCSDILGKGKHV
protein stability index: 0.661 ± 0.0084

RDAGPSKERNRR
protein stability index: 0.675 ± 0.039

RDARTWTVSHGT
protein stability index: 0.703 ± 0.033

RDELSYIDICLT
protein stability index: 0.691 ± 0.025

RDFLLLASHLRF
protein stability index: 0.764 ± 0.056

RDGYMVKVYGVK
protein stability index: 0.707 ± 0.1

RDLEAVRSEDHR
protein stability index: 0.6766 ± 0.0047

RDLLYHNCRNMI
protein stability index: 0.695 ± 0.027

RDLYHPFQSHQS
protein stability index: 0.705 ± 0.019

RDPSVVGLGRPP
protein stability index: 0.604 ± 0.0076

RDPTTYGRSKEN
protein stability index: 0.655 ± 0.023

RDQPPPLPFTRP
protein stability index: 0.712 ± 0.1

RDRGWSRGRQVH
protein stability index: 0.662 ± 0.015

RDSKDMTWISTS
protein stability index: 0.6755 ± 0.0024

RDSVLSFSALQV
protein stability index: 0.681 ± 0.0097

REIVLQTSAAYN
protein stability index: 0.613 ± 0.037

REKRSVTQSTTD
protein stability index: 0.796 ± 0.12

REKSLKINKKKN
protein stability index: 0.676 ± 0.0068

RERLSRGGEGFE
protein stability index: 0.693 ± 0.021

RERRGPTDLKRH
protein stability index: 0.712 ± 0.041

RFARQSNTFSQS
protein stability index: 0.659 ± 0.013

RFASGAVLSWAC
protein stability index: 0.695 ± 0.015

RFEISNLVFIPR
protein stability index: 0.686 ± 0.033

RFFGAVSFQFCL
protein stability index: 0.699 ± 0.011

RFFYGGRRTQQT
protein stability index: 0.753 ± 0.058

RFLAHLVRPFCG
protein stability index: 0.722 ± 0.039

RFNGWRDKEAME
protein stability index: 0.707 ± 0.036

RFNLLLSATEDR
protein stability index: 0.716 ± 0.07

RFPFFLLPPLSS
protein stability index: 0.65 ± 0.091

RFPLLAPPRPLP
protein stability index: 0.7318 ± 0.0043

RFPLLPLLRPPP
protein stability index: 0.6494 ± 0.0031

RFPPPPPPPPLL
protein stability index: 0.718 ± 0.078

RFSLGLIFLPSL
protein stability index: 0.68 ± 0.044

RFSYFPALFFPS
protein stability index: 0.678 ± 0.043

RFVDLASFLTFR
protein stability index: 0.587 ± 0.031

RGAEACGGVPGQ
protein stability index: 0.671 ± 0.024

RGAKKMNHRGRS
protein stability index: 0.675 ± 0.052

RGDHPAAGFPCG
protein stability index: 0.686 ± 0.033

RGFVVGGGGWLG
protein stability index: 0.706 ± 0.051

RGGAGGRKVSVG
protein stability index: 0.651 ± 0.05

RGGAGGRLGCGG
protein stability index: 0.71 ± 0.071

RGGGFIGSFFMG
protein stability index: 0.751 ± 0.15

RGGGGAWAGGVA
protein stability index: 0.734 ± 0.019

RGGGGGEWGEQR
protein stability index: 0.702 ± 0.046

RGGGGGSVSFWW
protein stability index: 0.676 ± 0.071

RGGGGPTVEDRR
protein stability index: 0.681 ± 0.007

RGGGGRGGSEGS
protein stability index: 0.686 ± 0.017

RGGPPPPPSITL
protein stability index: 0.851 ± 0.12

RGGSVGRGRLCL
protein stability index: 0.643 ± 0.014

RGHLPPIGLTRH
protein stability index: 0.675 ± 0.013

RGILGAGGAGRG
protein stability index: 0.744 ± 0.079

RGKATREAGKKR
protein stability index: 0.7916 ± 0.0028

RGLLLSRRWFSP
protein stability index: 0.641 ± 0.099

RGPPGVPGSDML
protein stability index: 0.673 ± 0.023

RGPSGARRQPGL
protein stability index: 0.6658 ± 0.0044

RGRAGPVVRELT
protein stability index: 0.646 ± 0.097

RGRGEVRGVGGG
protein stability index: 0.698 ± 0.067

RGRRGAGTGRGP
protein stability index: 0.657 ± 0.019

RGRSVEGSRGGW
protein stability index: 0.6781 ± 0.0048

RGRWGGGRVVRG
protein stability index: 0.6944 ± 0.0062

RGSGCAFLFAWF
protein stability index: 0.654 ± 0.092

RGSPDRPGGPLP
protein stability index: 0.7322 ± 0.0028

RGTGPPGALREE
protein stability index: 0.653 ± 0.046

RGVCVGGGCWLV
protein stability index: 0.624 ± 0.034

RGWGGGRVAREC
protein stability index: 0.657 ± 0.026

RGWWVLCGGGGG
protein stability index: 0.57 ± 0.044

RGWWVRGGVLWC
protein stability index: 0.677 ± 0.048

RGYSGSLSVVIY
protein stability index: 0.657 ± 0.057

RGYVNVWTRLGN
protein stability index: 0.717 ± 0.043

RHENKKDKIRME
protein stability index: 0.701 ± 0.11

RHKLYPRIVLNR
protein stability index: 0.699 ± 0.055

RHLPPAPAPRFI
protein stability index: 0.717 ± 0.2

RHPPPPPPALTP
protein stability index: 0.707 ± 0.054

RHSLPSPPAFCL
protein stability index: 0.723 ± 0.0092

RHTARQSTTWRG
protein stability index: 0.695 ± 0.071

RIAAVRVEGRDD
protein stability index: 0.708 ± 0.026

RIADSLTPAHPA
protein stability index: 0.699 ± 0.023

RIEIVDVQFLWE
protein stability index: 0.7 ± 0.048

RIEKNTKRSEIW
protein stability index: 0.665 ± 0.021

RIHAVINLLMND
protein stability index: 0.651 ± 0.039

RIKAKKNKTMKR
protein stability index: 0.655 ± 0.021

RIKRTMNEKIRK
protein stability index: 0.68 ± 0.0041

RIPSKSHAWVLV
protein stability index: 0.483 ± 0.058

RITTNQMNIKFI
protein stability index: 0.653 ± 0.02

RIWKKKRYNEKS
protein stability index: 0.681 ± 0.12

RKASQEQYHQRH
protein stability index: 0.648 ± 0.05

RKCHCPGGGRRI
protein stability index: 0.7171 ± 0.00079

RKDEKRGTVIIA
protein stability index: 0.62 ± 0.021

RKGHKSNRSKNE
protein stability index: 0.705 ± 0.03

RKINKQKRTKEE
protein stability index: 0.6449 ± 0.0023

RKKEKKQKKKKG
protein stability index: 0.688 ± 0.043

RKKIRKNITQQP
protein stability index: 0.692 ± 0.052

RKKKKKNKNEKE
protein stability index: 0.713 ± 0.04

RKKKNRKERQKK
protein stability index: 0.6725 ± 0.00086

RKKPRKLRETDN
protein stability index: 0.649 ± 0.053

RKLNEKTRYKRR
protein stability index: 0.7788 ± 0.003

RKMYRIKKEIKI
protein stability index: 0.641 ± 0.098

RKNTSRESGLTR
protein stability index: 0.632 ± 0.026

RKSDGMKSCLMG
protein stability index: 0.684 ± 0.016

RKYEKEKYKKMI
protein stability index: 0.566 ± 0.013

RLAPWATGVRMW
protein stability index: 0.6759 ± 0.0016

RLDAGASAAFKG
protein stability index: 0.7184 ± 0.00093
